# JP2024028198A
# Target: ヒ卜PAD4(Cayman Chemical company、Cat. 10500) (human) (UniProt Q9UM07)
# Assay: SPR Biacore T200, stored antibody captured on Protein A chip, human PAD4 at 50 nM as analyte
# Chain of UniProt Q9UM07 (Q9UM07 whole entry): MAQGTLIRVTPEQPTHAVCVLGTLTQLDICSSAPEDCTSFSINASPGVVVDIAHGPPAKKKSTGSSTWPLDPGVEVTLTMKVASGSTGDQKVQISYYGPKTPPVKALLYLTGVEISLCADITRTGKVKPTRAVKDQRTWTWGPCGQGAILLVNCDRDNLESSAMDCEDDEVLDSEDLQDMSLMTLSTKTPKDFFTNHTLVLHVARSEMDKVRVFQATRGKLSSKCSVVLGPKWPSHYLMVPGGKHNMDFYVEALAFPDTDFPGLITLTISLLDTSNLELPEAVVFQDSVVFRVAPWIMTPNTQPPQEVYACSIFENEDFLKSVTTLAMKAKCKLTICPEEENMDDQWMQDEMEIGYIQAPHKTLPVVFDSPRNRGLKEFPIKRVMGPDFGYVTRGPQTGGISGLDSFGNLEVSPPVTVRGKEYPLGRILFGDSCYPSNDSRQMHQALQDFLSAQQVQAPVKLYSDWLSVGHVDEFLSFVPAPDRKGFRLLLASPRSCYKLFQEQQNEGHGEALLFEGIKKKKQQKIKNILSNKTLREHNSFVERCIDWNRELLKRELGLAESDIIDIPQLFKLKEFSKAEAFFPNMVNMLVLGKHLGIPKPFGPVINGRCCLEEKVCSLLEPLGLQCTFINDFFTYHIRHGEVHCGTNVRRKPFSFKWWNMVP
row,抗原結合活性 (relative antigen binding after 40℃ for 4 weeks against 4℃ for 4 weeks) [%],Binder
1,> 90,"抗PAD4抗体2-1-47 (antibody, human IgG1, lambda, V domains shown) VH: EVQLLESGGGLVQPGGSLRLSCAASGFTFSTYAMGWVRQAPGKGLEFVAAIRNDGSWTGYGTPYKTRFTISRDNSKNTLYLQMSSLRAEDTAVYYCAKYTGSSGGSIGAWGQGTLVTVSS VL: SYELTQPPSVSVSPGQTARITCSGGNRNYYYGWYQQKPGQAPVTVIYANDKRPSGIPERFSGSNSGSTTTLTISGVQAEDEADYYCGTATTGKYVFGGGTKLTVLG"
2,> 90,"抗PAD4抗体4-2-25 (antibody, human IgG1, lambda, V domains shown) VH: EVQLLESGGGLVQPGGSLRLSCAASGFTFSTYAMGWVRQAPGKGLEFVAAIRNDGSWTGYPPPLKGRFTISRDNSKNTLYLQMSSLRAEDTAVYYCAKYTGSSGGSIGAWGQGTLVTVSS VL: SYELTQPPSVSVSPGQTARITCSGGNRNYYYGWYQQKPGQAPVTVIYANDKRPSGIPERFSGSNSGSTTTLTISGVQAEDEADYYCGTAYTGKYVFGGGTKLTVLG"
3,> 90,"抗PAD4抗体3-1-39 (antibody, human IgG1, lambda, V domains shown) VH: EVQLLESGGGLVQPGGSLRLSCAASGFTFSTYAMGWVRQAPGKGLEFVAAIRNDGSWTGTSVNAKTRFTISRDNSKNTLYLQMSSLRAEDTAVYYCAKYTGSSGGSIGAWGQGTLVTVSS VL: SYELTQPPSVSVSPGQTARITCSGGNRNYYYGWYQQKPGQAPVTVIYANDKRPSGIPERFSGSNSGSTTTLTISGVQAEDEADYYCGTATTGKYVFGGGTKLTVLG"
4,> 90,"抗PAD4抗体3-2-37 (antibody, human IgG1, lambda, V domains shown) VH: EVQLLESGGGLVQPGGSLRLSCAASGFTFSTYAMGWVRQAPGKGLEFVAAIRNDGSWTGIGYNQKSRFTISRDNSKNTLYLQMSSLRAEDTAVYYCGKYTGSSGGSIGAWGQGTLVTVSS VL: SYELTQPPSVSVSPGQTARITCSGGNRNYYYGWYQQKPGQAPVTVIYANDKRPSGIPERFSGSNSGSTTTLTISGVQAEDEADYYCGTALTGKYVFGGGTKLTVLG"
